# Reference: publication PMC11599015 (Viruses, 2024)
# B1: C-terminal domain of RABV phosphoprotein P (PCTD) (domain or fragment)
# chain: WSATNEEDDLSVEAEIAHQIAESFSKKYKFPSRSSGIFLYNFEQLKMNLDDIVKEAKNVPGVTRLAHDGSKIPLRCVLGWVALANSKKFQLLVEADKLSKIMQDDLNRYTSC
# Biological target: recombinant circular RABV N10-RNA complex purified from insect cells (phosphorylated) (rabies virus (RABV), UniProt Q8JXF6 1-450)
# Assay: SPR
# Conditions: both partners purified
# Chain of recombinant circular RABV N10-RNA complex purified from insect cells (phosphorylated) (Q8JXF6 whole entry, one chain of several): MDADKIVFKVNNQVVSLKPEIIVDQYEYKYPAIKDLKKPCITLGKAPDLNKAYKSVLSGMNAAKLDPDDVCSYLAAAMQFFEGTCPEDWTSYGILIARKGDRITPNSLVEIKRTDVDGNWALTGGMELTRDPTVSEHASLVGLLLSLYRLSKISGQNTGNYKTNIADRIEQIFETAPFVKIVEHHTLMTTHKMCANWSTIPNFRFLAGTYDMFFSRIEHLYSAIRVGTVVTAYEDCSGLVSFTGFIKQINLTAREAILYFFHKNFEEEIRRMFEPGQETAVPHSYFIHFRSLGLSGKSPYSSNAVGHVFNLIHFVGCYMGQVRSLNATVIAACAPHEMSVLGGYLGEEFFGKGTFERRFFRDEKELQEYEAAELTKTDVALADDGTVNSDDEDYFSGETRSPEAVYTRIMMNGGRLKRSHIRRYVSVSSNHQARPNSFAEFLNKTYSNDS
binder,measurement,value
B1,Kd,160 ± 20 nM
same,stoichiometry N,2 ± 0.2
